Data on one substance can be found in patent US20190071490A1, “Preventing Post-Ictal Headaches” (Beth Israel Deaconess Medical Center, Inc., priority 2017, published 2019).

Experiment [1] has as its target human α-CGRP 1-37 (WT) (human). Description: Biacore SPR, 25 °C, Fab flowed across N-biotinylated peptide on SA chip. For orientation: In SPR one partner is held on a chip, and binding of the other changes the refractive index at the surface.
Experiment [2] has as its target human α-CGRP fragment 25-37 (human). Briefly: Biacore, 25°C, Fab over biotinylated fragment (FIG. 1).
Experiment [3] has as its target human α-CGRP fragment 19-37 (human). Description: Biacore SPR, 25 °C, Fab flowed across N-biotinylated peptide on SA chip; mean ± SD of two independent measurements on different chips.
Experiment [4] addresses human α-CGRP fragment 25-37 (human). The experiment is described as above.
The target of experiment [5] is human α-CGRP K35A (19-37) (human). Description: Biacore SPR, 25 °C, Fab flowed across peptide on SA chip; KD of alanine mutant relative to parent fragment 19-37.
The target of experiment [6] is human α-CGRP 1-37 (WT) (human). Description: Biacore, 25°C, Fab over biotinylated CGRP on SA chip.
Sequence of human α-CGRP 1-37 (WT) (human) (peptide, as listed by the source): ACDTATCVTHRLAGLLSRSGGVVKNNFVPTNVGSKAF
The target of experiment [7] is human α-CGRP T30A (25-37) (human). Briefly: Biacore SPR, 25 °C, Fab flowed across peptide on SA chip; KD of alanine mutant relative to parent fragment 25-37.
In experiment [8] the target is human α-CGRP F27A (25-37) (human). The experiment is described as above.
The target in experiment [9] is human α-CGRP N31A (25-37) (human). The description is as above.
Experiment [10] concerns the target human α-CGRP S34A (25-37) (human). The experiment is described as above.
The target in experiment [11] is human α-CGRP V32A (25-37) (human). The description is as above.
In experiment [12] the target is human α-CGRP V28A (25-37) (human). The experiment is described as above.
For experiment [13], the target named is human α-CGRP P29A (25-37) (human). The experiment is described as above.
Experiment [14] concerns the target human α-CGRP G33A (25-37) (human). The description is as above.
The target in a further experiment is rat α-CGRP (1-37) (rat). Description: Biacore, 37°C, Fab over biotinylated CGRP on SA chip.
Sequence of rat α-CGRP (1-37) (rat) (peptide, as listed by the source): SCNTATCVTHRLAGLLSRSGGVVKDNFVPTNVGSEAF
Experiment [15] has as its target human α-CGRP 1-37 (WT) (human). The description is as above.

The Kd is the free concentration of one partner at which half of the binding sites on the other are occupied at equilibrium, for simple one-to-one binding. Low readings indicate tighter binding, high ones weaker binding. Take anti-CGRP antibody 4901, Fab fragment: the Kd in experiment [1] stood at 60.5 nM; in experiment [3], 52 nM; in experiment [4], 296 nM; in [6] it was 61 nM; in the experiment with rat α-CGRP (1-37) (rat) it was 3.4 nM; in experiment [15], 139 nM. In [2], this substance showed a fold lower affinity than to full length human α-CGRP of 6 fold. The KD(mutant/parent) in experiment [5] came to 0.3; in experiment [7], 0.2; in experiment [8] it was 0.8; in experiment [9] it was 0.3; in experiment [10], 0.8; in experiment [11], 0.9. Besides, the KD(mutant/parent) in [12] amounted to 0.8; in [13], 0.2; in [14], 1.3.
